Experimental data: patent US20250011468A1 (Novo Nordisk, published 2025)
One block for each binder: values may come before it.

Target: human plasma-derived FIXa (Haematologic Technologies Inc) (human, UniProt P00740 47-191; P00740 227-461)
Test: cell-based or functional assay

Chain of human plasma-derived FIXa (Haematologic Technologies Inc) (P00740 47-191, chain 1 of 2): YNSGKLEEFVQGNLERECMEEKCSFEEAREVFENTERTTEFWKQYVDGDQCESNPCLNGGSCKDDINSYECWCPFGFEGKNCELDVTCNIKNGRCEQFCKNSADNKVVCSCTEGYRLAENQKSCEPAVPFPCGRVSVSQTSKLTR
Chain of human plasma-derived FIXa (Haematologic Technologies Inc) (P00740 227-461, chain 2 of 2): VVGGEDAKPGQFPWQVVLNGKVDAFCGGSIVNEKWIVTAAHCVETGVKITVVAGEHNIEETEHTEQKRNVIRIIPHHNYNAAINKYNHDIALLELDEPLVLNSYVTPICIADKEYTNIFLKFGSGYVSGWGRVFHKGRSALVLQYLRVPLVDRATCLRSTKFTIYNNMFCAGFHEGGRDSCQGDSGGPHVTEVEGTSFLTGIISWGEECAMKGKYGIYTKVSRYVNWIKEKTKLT

Maximum stimulation (fold), at 109 nM BiAb: 3190 fold
B2: mAb4-7762 (bispecific, mAb1-6584/mAb1-6738) (bispecific antibody, V domains shown)
VH 1: EVQLVQSGAEVKKPGESLRISCKGSGYSFRPYWIGWVRQMPGKGLEWMGMIDPSDSYTDYGPSFRGHVTISADKSISTAYLQWSSLKASDTAMYYCARVRIRAGAFDIWGQGTMVTVSS
VL 1: DIVMTQSPLSLPVTPGEPASISCRSSQSLLHSTWYNYLNWYLQKPGQSPQLLIYLGKNRASGVPDRFSGSGSGTDFTLKISRVEAEDVGVYYCMQVLHIPYTFGQGTKLEIK
VH 2: EVQLVESGGGLVKPGGSLRLSCAASGFTFSDAWMNWVRQAPGKGLEWVGRIKRKTDGGTTDYAAPVKGRFTISRDDSKNTLYLQMDSLKTEDTAVYYCTTDGIAVAGPLRVYWGQGTLVTVSS
VL 2: not shown

Maximum stimulation (fold), at 1115 nM BiAb: 11000 fold
B3: mAb5-1409 (bispecific, mAb1-8768/mAb1-7503) (bispecific antibody, V domains shown)
VH 1: EVQLVESGGGLVQPGRSLKLSCAASGFTFHDYAMHWVRQVPGKGLEWVSGISWRGDIIGYVDSVKGRFTISRDNAKNSLYLQLNSLRAEDTALYYCVKSYGSGSFYNAFDSWGQGTLVTVSS
VL 1: DIQMTQSPSTLSASAGDRVTITCRASQSISSWLAWYQQKPGKAPKFLIYKASRLDRGTPSRFSGSGSGTEFSLTISSLQPDDFATYYCLEYSSYIRTFGQGTKVEIK
VH 2: EVQLVQSGAEVKKPGESLRISCKGSGYSFTTSWIVWVRQMPGKGLEWMGMIDPSDSFTSYSPSFQGHVTISADKSISTAYLQWSSLKASDTAMYYCARLHYYHSEEFDVWGQGTLVTVSS
VL 2: EIVLTQSPGTLSLSPGERATLSCRASQSVSSSYLAWYQQKPGQAPRLLIYGASSRTRGIPDRFSGSGSGTDFTLTISRLEPEDFAVYYCQQFGSSRLFTFGEGTKLEIK

The next lines start with the binder.

B1: mAb4-7758 (bispecific, mAb1-6584/mAb1-6097) (bispecific antibody, V domains shown)
VH 1: EVQLVQSGAEVKKPGESLRISCKGSGYSFRPYWIGWVRQMPGKGLEWMGMIDPSDSYTDYGPSFRGHVTISADKSISTAYLQWSSLKASDTAMYYCARVRIRAGAFDIWGQGTMVTVSS
VL 1: DIVMTQSPLSLPVTPGEPASISCRSSQSLLHSTWYNYLNWYLQKPGQSPQLLIYLGKNRASGVPDRFSGSGSGTDFTLKISRVEAEDVGVYYCMQVLHIPYTFGQGTKLEIK
VH 2: EVQLVESGGGLVKPGGSLRLSCAASGFTFSNAHMNWVRQAPGKGLEWVGRIKRKTDGGTTDYAAPVKGRFTISRDDSKNTLYLQMNSLKTEDTAVYYCTTDGIAVAGPLRVYWGQGTLVTVSS
VL 2: not shown
Maximum stimulation (fold), at 633 nM BiAb: 2810 fold

B4: mAb4-7756 (bispecific, mAb1-6584/mAb1-6723) (bispecific antibody, V domains shown)
VH 1: EVQLVQSGAEVKKPGESLRISCKGSGYSFRPYWIGWVRQMPGKGLEWMGMIDPSDSYTDYGPSFRGHVTISADKSISTAYLQWSSLKASDTAMYYCARVRIRAGAFDIWGQGTMVTVSS
VL 1: DIVMTQSPLSLPVTPGEPASISCRSSQSLLHSTWYNYLNWYLQKPGQSPQLLIYLGKNRASGVPDRFSGSGSGTDFTLKISRVEAEDVGVYYCMQVLHIPYTFGQGTKLEIK
VH 2: EVQLVQSGAEVKKPGESLRISCKGSGYSFTTSWIVWVRQMPGKGLEWMGMIDPSDSFTSYSPSFQGHVTISADKSISTAYLQWSSLKASDTAMYYCARLHYYHSEEFDVWGQGTLVTVSS
VL 2: EIVLTQSPGTLSLSPGERATLSCRASQSVSSSYLAWYQQKPGQAPRLLIYGASSRARGIPDRFSGSGSGTDFTLTISRLEPEDFAVYYCQQFGSSRLFTFGQGTKLEIK
Maximum stimulation (fold), at 1520 nM BiAb: 2600 fold

B5: mAb4-7687 (bispecific, mAb1-6037/mAb1-6723) (bispecific antibody, V domains shown)
VH 1: EVQLVESGGGLVQPGRSLKLSCAASGFTFDDYAMHWVRQVPGKGLEWVSGISWRGDIIGYVDSVKGRFTISRDNAKNSLYLQLNSLRAEDTALYYCVKSYGSGSFYNAFDSWGQGTLVTVSS
VL 1: DIQMTQSPSTLSASAGDRVTITCRASQSISEWLAWYQQKPGKAPKFLIYKASRLDRGVPSRFSGSGSGTEFSLTISSLQPDDFATYYCLEYSSYIRTFGQGTKVEIK
VH 2: EVQLVQSGAEVKKPGESLRISCKGSGYSFTTSWIVWVRQMPGKGLEWMGMIDPSDSFTSYSPSFQGHVTISADKSISTAYLQWSSLKASDTAMYYCARLHYYHSEEFDVWGQGTLVTVSS
VL 2: EIVLTQSPGTLSLSPGERATLSCRASQSVSSSYLAWYQQKPGQAPRLLIYGASSRARGIPDRFSGSGSGTDFTLTISRLEPEDFAVYYCQQFGSSRLFTFGQGTKLEIK
Maximum stimulation (fold), at 1650 nM BiAb: 2490 fold
